B1: TFE3 (parent)
chain: ELPNIKREISETEAKALLKERQKK

Variants of: B1
Experiment: protein stability index of a GFP-peptide fusion (GPS, HEK-293T) (PSI 1-6); higher = more stable
Details: c terminus: a fixed tail appended
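Also: lentivirally expressed fusions sorted by FACS into six bins by GFP to DsRed ratio, PSI derived from sequencing read proportions per bin multiplied by bin number.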

Protein stability index of substitutions, site by site:
E1: S 2.87, V 3.57, F 2.21, I 3.59, N 2.75, H 2.66, R 3.51, L 2.29, W 3.01
L18: C 2.6, F 2.28, Q 2.96, E 2.5, V 2.2, W 2.37, K 3.19
S10: N 3, A 2.23, K 3, L 2.57
I9: M 2.25, N 3.19, Y 4.34, P 5.1, A 4.71, T 4.49, Q 4.83, K 4.95
E13: G 4.58, D 4.12, W 2.56, N 3.83, K 3.83
K19: G 1.71, W 2.29, S 2.53, P 2.29, M 2.89, H 2.36, L 2.84
Q22: C 2.71, D 2.11, G 2.77, V 2.83, A 2.73, Y 1.8, L 2.24
N4: H 2.84, I 3.85, E 3.9
K6: S 2.5, M 2.75, N 2.81, F 2.79, T 3.05, V 2.24, Q 2.45, Y 2.65
E11: H 3.1, M 2.78, Q 3.29, L 2.79, V 2.43, T 3.25, Y 3.16, G 3.45, A 2.89
R7: W 2.84, L 2.68, I 3.2, C 2.97, D 2.95
K15: C 3.29, I 2.21, V 2.02, A 2.5, H 2.94, Y 2.31, T 2.3, N 2.22
P3: V 2.32, Q 2.98, A 2.6, S 3.44, T 3.57, L 2.02, G 3.5
A14: Y 2.49, D 2.17, H 3.14, K 2.75, E 3.05, N 2.64, L 2.54, F 2.83, M 2.05
L2: T 4.71, A 4.75, I 2.19, G 5.23, S 5.39, K 5.08
E20: W 2.82, I 2.29, Y 2.5, A 2.99, F 2.03, L 2.44, D 2.79, M 2.59
T12: I 4.13, K 3.85, M 4.26, W 3.31, H 4.58, G 4.73, A 2.86, P 4.73
K24: L 2.53, N 3.05, Q 2.84, E 3.37, C 2.71
L17: Q 2.56, S 2.32, E 2.25, K 3.17, V 3.14
E8: M 3.32, G 3.09, T 3.46, L 3.6, V 3.43, H 3.31, I 3.39, C 3.4
A16: Q 4.6, V 2.79, C 2.2, Y 2.37, F 2.08, D 4.48, M 2.63
K23: M 2.4, Q 2.45, T 2.86, D 2.56, I 2.34, F 2.36, C 3.09, W 2.36
I5: Y 4.3, Q 4.38, P 4.91, F 4.05, S 4.98
R21: G 2.28, D 2.88, S 1.81, P 2.32, C 2.43, Q 2.73, Y 2.72, I 2.66, F 2.38, L 2.97, M 2.25
